B1: PCC7942 orf1594: Synechococcus elongatus PCC7942 orf1594, putative aldehyde-generating enzyme, named Acyl-ACP reductase (protein, listed as Synechococcus elongatus)
chain: MFGLIGHLTSLEQARDVSRRMGYDEYADQGLEFWSSAPPQIVDEITVTSATGKVIHGRYIESCFLPEMLAARRFKTATRKVLNAMSHAQKHGIDISALGGFTSIIFENFDLASLRQVRDTTLEFERFTTGNTHTAYVICRQVEAAAKTLGIDITQATVAVVGATGDIGSAVCRWLDLKLGVGDLILTARNQERLDNLQAELGRGKILPLEAALPEADFIVWVASMPQGVVIDPATLKQPCVLIDGGYPKNLGSKVQGEGIYVLNGGVVEHCFDIDWQIMSAAEMARPERQMFACFAEAMLLEFEGWHTNFSWGRNQITIEKMEAIGEASVRHGFQPLALAI
B2: ATCC51142 cce_1430: Cyanothece sp. ATCC51142 cce_1430, putative aldehyde-generating enzyme (protein, listed as Cyanothece sp.)
chain: MFGLIGHLTSLEHAHSVADAFGYGPYATQGLDLWCSAPPQFVEHFHVTSITGQTIEGKYIESAFLPEMLIKRRIKAAIRKILNAMAFAQKNNLNITALGGFSSIIFEEFNLKENRQVRNVSLEFDRFTTGNTHTAYIICRQVEQASAKLGIDLSQATVAICGATGDIGSAVCRWLDRKTDTQELFLIARNKERLQRLQDELGRGKIMGLEEALPEADIIVWVASMPKGVEINAETLKKPCLIIDGGYPKNLDTKIKHPDVHILKGGIVEHSLDIDWKIMETVNMDVPSRQMFACFAEAILLEFEQWHTNFSWGRNQITVTKMEQIGEASVKHGLQPLLSW
B3: SEQ ID NO: 19: Prochlorococcus marinus CCMP1986 PMM0532, putative decarbonylase (protein, listed as Prochlorococcus marinus)
chain: MQTLESNKKTNLENSIDLPDFTTDSYKDAYSRINAIVIEGEQEAHDNYISLATLIPNELEELTKLAKMELKHKRGFTACGRNLGVQADMIFAKEFFSKLHGNFQVALSNGKTTTCLLIQAILIEAFAISAYHVYIRVADPFAKKITQGVVKDEYLHLNYGQEWLKENLATCKDELMEANKVNLPLIKKMLDQVSEDASVLAMDREELMEEFMIAYQDTLLEIGLDNREIARMAMAAIV
B4: SEQ ID NO: 52: Synechococcus sp. RS9917 RS9917_09941, putative decarbonylase, codon optimized for E. coli (protein, listed as Synechococcus sp.)
chain: MPTLETSEVAVLEDSMASGSRLPDFTSEAYKDAYSRINAIVIEGEQEAHDNYIALGTLIPEQKDELARLARMEMKHMKGFTSCGRNLGVEADLPFAKEFFAPLHGNFQAALQEGKVVTCLLIQALLIEAFAISAYHIYIPVADPFARKITEGVVKDEYTHLNYGQEWLKANFEASKDELMEANKANLPLIRSMLEQVAADAAVLQMEKEDLIEDFLIAYQEALCEIGFSSRDIARMAAAALAV
B5: SEQ ID NO: 53: Synechococcus sp. RS9917 RS9917_12945, putative decarbonylase, codon optimized for E. coli (protein, listed as Synechococcus sp.)
chain: MTQLDFASAAYREAYSRINGVVIVGEGLANRHFQMLARRIPADRDELQRLGRMEGDHASAFVGCGRNLGVVADLPLARRLFQPLHDLFKRHDHDGNRAECLVIQGLIVECFAVAAYRHYLPVADAYARPITAAVMNDESEHLDYAETWLQRHFDQVKARVSAVVVEALPLTLAMLQSLAADMRQIGMDPVETLASFSELFREALESVGFEAVEARRLLMRAAARMV
B6: PMM0533: P. mariunus CCMP1986 PMM0533, putative aldehyde-generating enzyme (protein, listed as Prochlorococcus marinus)
chain: MFGLIGHSTSFEDAKRKASLLGFDHIADGDLDVWCTAPPQLVENVEVKSAIGISIEGSYIDSCFVPEMLSRFKTARRKVLNAMELAQKKGINITALGGFTSIIFENFNLLQHKQIRNTSLEWERFTTGNTHTAWVICRQLEMNAPKIGIDLKSATVAVVGATGDIGSAVCRWLINKTGIGELLLVARQKEPLDSLQKELDGGTIKNLDEALPEADIVVWVASMPKTMEIDANNLKQPCLMIDGGYPKNLDEKFQGNNIHVVKGGIVRFFNDIGWNMMELAEMQNPQREMFACFAEAMILEFEKCHTNFSWGRNNISLEKMEFIGAASVKHGFSAIGLDKHPKVLAV
B7: sll0209: Synechocystis sp. PCC6803 sll0209, acyl-ACP reductase (protein, listed as Synechocystis sp.)
chain: MFGLIGHLTSLEHAQAVAEDLGYPEYANQGLDFWCSAPPQVVDNFQVKSVTGQVIEGKYVESCFLPEMLTQRRIKAAIRKILNAMALAQKVGLDITALGGFSSIVFEEFNLKQNNQVRNVELDFQRFTTGNTHTAYVICRQVESGAKQLGIDLSQATVAVCGATGDIGSAVCRWLDSKHQVKELLLIARNRQRLENLQEELGRGKIMDLETALPQADIIVWVASMPKGVEIAGEMLKKPCLIVDGGYPKNLDTRVKADGVHILKGGIVEHSLDITWEIMKIVEMDIPSRQMFACFAEAILLEFEGWRTNFSWGRNQISVNKMEAIGEASVKHGFCPLVAL

Legend:
Format in all cases: cell-based
[1] = tested on: E. coli MG1655; test: Heterologous expression of aldehyde-generating enzyme alone in E. coli, GC-MS of fatty aldehydes and fatty alcohols
Experimental: (§1) The genomic DNA encoding Synechococcus elongatus PCC7942 orf1594 (YP_400611; putative aldehyde-generating enzyme) (SEQ ID NO:65) was amplified and cloned into the NcoI and EcoRI sites of vector OP-80 (pCL1920 derivative) under the control of the Ptrc promoter. The resulting construct (“OP80-PCC7942_1594”) was transformed into E. coli MG1655 and the cells were grown at 37° C. in M9 minimal media with 1% (w/v) glucose as carbon source and supplemented with 100 μg/mL spectinomycin. When the culture reached OD600 of 0.8-1.0, it was induced with 1 mM IPTG and cells were grown for an additional 18-20 h at 37° C. Cells from 0.5 mL of culture were extracted with 0.5 mL of ethyl acetate. After sonication for 60 min, the sample was centrifuged at 15,000 rpm for 5 min. The solvent layer was analyzed by GC-MS as described in Example 1.
The genomic DNA encoding Cyanothece sp. ATCC51142 cce_1430 (YP_001802846; putative aldehyde-generating enzyme) (SEQ ID NO:69) was amplified and cloned into the NcoI and EcoRI sites of vector OP-80 (pCL1920 derivative) under the control of the Ptrc promoter. The resulting construct was transformed into E. coli MG1655 and the cells were grown at 37° C. in M9 minimal media with 1% (w/v) glucose as carbon source and supplemented with 100 μg/mL spectinomycin. The cells were cultured and extracted as in Example 3 and analyzed by GC-MS as described in Example 26.
The genomic DNA encoding P. mariunus CCMP1986 PMM0533 (NP_892651; putative aldehyde-generating enzyme) (SEQ ID NO:71) and Prochlorococcus mariunus CCMP1986 PMM0532 (NP_892650; putative decarbonylase) (SEQ ID NO:19) were amplified and cloned into the NcoI and EcoRI sites of vector OP-80 and the NdeI and XhoI sites of vector OP-183, respectively. The resulting constructs were separately transformed and cotransformed into E. coli MG1655 and the cells were grown at 37° C. in M9 minimal media supplemented with 100 μg/mL spectinomycin and 100 μg/mL carbenicillin. The cells were cultured and extracted as in Example 3 and analyzed by GC-MS as described in Example 26.
The genomic DNA encoding Synechocystis sp. PCC6803 sll0208 (NP_442147; putative fatty aldehyde decarbonylase) (SEQ ID NO:3) was synthesized and cloned into the NdeI and XhoI sites of vector OP-183 (pACYC derivative) under the control of the Ptrc promoter. The genomic DNA encoding Synechocystis sp. PCC6803 sll0209 (NP_442146; acyl-ACP reductase) (SEQ ID NO:67) was synthesized and cloned into the NcoI and EcoRI sites of vector OP-183 (pACYC derivative) under the control of the Ptrc promoter. The resulting constructs were cotransformed with into E. coli MG1655 ΔfadE lacZ::Ptrc ′tesA-fadD. […] The cells were cultured and extracted as in Example 3 and analyzed by GC-MS as described in Example 26.

[2] = tested on: E. coli MG1655 ΔfadD lacZ::Ptrc-′tesA; test: Decarbonylase expression in fatty aldehyde-producing E. coli strain expressing MSMEG_5739; conditions: coexpressed with M. smegmatis carboxylic acid reductase MSMEG_5739
[3] = tested on: E. coli MG1655; test: Coexpression of decarbonylase and aldehyde-generating enzyme in E. coli, GC-MS of hydrocarbons; conditions: for Production of Alkanes and Alkenes: alkane/alkene biosynthetic polypeptide coexpressed in E. coli with the aldehyde biosynthetic polypeptide of the same table row; for fatty aldehyde decarbonylase activity in E. coli: cotransformed with S. elongatus PCC7942_1594 into E. coli MG1655, M9 minimal media, 37° C.
Text: Seven cyanobacteria, whose complete genome sequences are publicly available, were selected for verification and/or detection of alkane biosynthesis: Synechococcus elongatus PCC7942, Synechococcus elongatus PCC6301, Anabaena variabilis ATCC29413, Synechocystis sp. PCC6803, Nostoc punctiforme PCC73102, Gloeobacter violaceus ATCC 29082, and Prochlorococcus marinus CCMP1986. Only the first three cyanobacterial strains from this list had previously been reported to contain alkanes (Han et al., J. Am. Chem. Soc. 91:5156-5159 (1969); Fehler et al., Biochem. 9:418-422 (1970)). The strains were grown photoautotrophically in shake flasks in 100 mL of the appropriate media (listed in Table 8) for 3-7 days at 30° C. at a light intensity of approximately 3,500 lux. Cells were extracted for alkane detection as follows: cells from 1 mL culture volume were centrifuged for 1 min at 13,000 rpm, the cell pellets were resuspended in methanol, vortexed for 1 min and then sonicated for 30 min. After centrifugation for 3 min at 13,000 rpm, the supernatants were transferred to fresh vials and analyzed by GC-MS. The samples were analyzed on either 30 m DP-5 capillary column (0.25 mm internal diameter) or a 30 m high temperature DP-5 capillary column (0.25 mm internal diameter) using the following method.
After a 1 μL splitless injection (inlet temperature held at 300° C.) onto the GC/MS column, the oven was held at 100° C. for 3 mins. The temperature was ramped up to 320° C. at a rate of 20° C./min. The oven was held at 320° C. for an additional 5 min. The flow rate of the carrier gas helium was 1.3 mL/min. The MS quadrapole scanned from 50 to 550 m/z. Retention times and fragmentation patterns of product peaks were compared with authentic references to confirm peak identity.
as §1
The genomic DNA encoding Synechococcus elongatus PCC7942 orf1593 (YP_400610; putative decarbonylase) (SEQ ID NO:1) was amplified and cloned into the NdeI and XhoI sites of vector OP-183 (pACYC derivative) under the control of the Ptrc promoter. The resulting construct was cotransformed with OP80-PCC7942_1594 into E. coli MG1655 and the cells were grown at 37° C. in M9 minimal media supplemented with 100 μg/mL spectinomycin and 100 μg/mL carbenicillin. The cells were cultured and extracted as in Example 3 and analyzed by GC-MS as described in Example 1. […]

[4] = enzyme expressed alone in E. coli MG1655

Row | Molecule | production of fatty aldehydes and fatty alcohols [1, 4] | conversion of fatty aldehydes provided by MSMEG_5739 to alkanes [2] | Production of Alkanes and Alkenes [3] | fatty aldehyde decarbonylase activity in E. coli [3] | production of fatty aldehydes and fatty alcohols ([1]; enzyme expressed alone in E. coli MG1655 ΔfadE lacZ::Ptrc ′tesA-fadD (fatty acyl-CoA-producing))
1 | B1 | generates aldehydes in-vivo | – | – | – | –
2 | B2 | generates aldehydes in-vivo | – | – | – | –
3 | B3 | – | converted fatty aldehydes provided by MSMEG_5739 to the corresponding alkanes | yes | active fatty aldehyde decarbonylase | –
4 | B4 | – | converted fatty aldehydes provided by MSMEG_5739 to the corresponding alkanes | yes | active fatty aldehyde decarbonylase | –
5 | B5 | – | converted fatty aldehydes provided by MSMEG_5739 to the corresponding alkanes | yes | active fatty aldehyde decarbonylase | –
6 | B6 | did not produce any fatty aldehydes or fatty alcohols | – | – | – | –
7 | B7 | – | – | – | – | did not produce any fatty aldehydes or fatty alcohols

From patent US9481899B2, “Methods and compositions for producing hydrocarbons” (priority 2008, dated 2016)
